Results: PMC7922766

Target: Full-length recombinant human SIRT1 (human) (UniProt Q96EB6)
Sequence of UniProt Q96EB6 (Q96EB6 whole entry): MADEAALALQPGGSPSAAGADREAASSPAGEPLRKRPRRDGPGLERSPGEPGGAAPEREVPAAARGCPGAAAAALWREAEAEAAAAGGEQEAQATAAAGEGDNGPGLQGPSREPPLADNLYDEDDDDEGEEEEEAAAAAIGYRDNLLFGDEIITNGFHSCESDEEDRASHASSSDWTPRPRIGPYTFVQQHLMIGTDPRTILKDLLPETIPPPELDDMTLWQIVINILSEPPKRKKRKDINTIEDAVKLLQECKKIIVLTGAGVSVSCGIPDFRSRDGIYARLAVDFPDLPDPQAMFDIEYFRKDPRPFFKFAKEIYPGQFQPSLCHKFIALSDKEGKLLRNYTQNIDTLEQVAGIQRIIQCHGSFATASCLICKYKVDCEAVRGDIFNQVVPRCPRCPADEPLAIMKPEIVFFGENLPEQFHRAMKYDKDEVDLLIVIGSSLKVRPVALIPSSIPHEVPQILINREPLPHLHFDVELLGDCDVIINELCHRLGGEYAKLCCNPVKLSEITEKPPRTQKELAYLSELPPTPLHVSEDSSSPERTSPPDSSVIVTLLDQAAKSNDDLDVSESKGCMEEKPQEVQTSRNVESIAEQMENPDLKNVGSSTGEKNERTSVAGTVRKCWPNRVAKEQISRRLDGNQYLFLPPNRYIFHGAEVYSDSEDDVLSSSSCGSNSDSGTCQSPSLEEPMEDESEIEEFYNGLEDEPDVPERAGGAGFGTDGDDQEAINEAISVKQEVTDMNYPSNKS

Km of the peptide substrate in SIRT1-catalysed deacetylation (HPLC assay, 500 uM NAD+, 0.5 uM SIRT1, 100 mM phosphate pH 7.5, 37 °C): 46.4 µM
Substance: H4K16Ac synthetic peptide
